Tested on: MS2 coat protein
Experiment: apparent KD of MS2 coat protein; designed switch direction (-1 OFF switch, 1 ON switch): -1; higher = weaker reporter binding
Summary of the method: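 An oligonucleotide input, 200 uM small-molecule ligand, or no input was present during titration of SNAP-549-labelled MS2 coat protein, which was doubled from 0.7 or 1.5 nM to 3 µM. Designed RNA switches had been transcribed on Illumina chips by stalled E. coli RNA polymerase. Apparent KD per design is the median over clusters of curves fitted to normalised cluster fluorescence.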

[1] = Eterna round: R95, input ligand: FMN 200 uM
[2] = Eterna round: R95, input ligand: microRNA oligo, concentration not stated
[3] = Eterna round: R95, input ligand: none
[4] = input ligand: microRNA oligo, concentration not stated

Sequence | apparent KD of MS2 coat protein (input ligand: FMN 200 uM) | apparent KD of MS2 coat protein (input ligand: none) | apparent KD of MS2 coat protein [1] | apparent KD of MS2 coat protein [2] | apparent KD of MS2 coat protein [3] | apparent KD of MS2 coat protein [4]
AAUAAAGUAGGAUAUACAUGAGGAUCACCCAUGUCCCACCCGUUACCUAUGACCAUAUGUAGAAGGACUAAUAA [Exy#3] (Eterna round: R97, puzzle: Exclusion 3) | 80 nM | 59.1 nM | – | – | – | –
UACAAGCUUUUAAGAUCCCACAUGAGGAUCACCCAUGUGCUCGUCUUAUAACGUACUGUGACGAAAGUCACGGUACG [JL TOV1 3.24] (Eterna round: R97, puzzle: Sensor, turn-off variant 1) | 15.8 nM | 24.3 nM | – | – | – | –
GGUCGAGAACAGCUCCGCGCCGCCCUCGACCGCUCAUUUACAUGAGGAUCACCCAUGUUUUUUGCUUGUCUUGUUUC [Ceerar] (puzzle: Sensor v3, turn-off variant 2) | – | – | 20.6 nM | 98.4 nM | 23.4 nM | –
AAAACGGACCGAGGAUAUACAUGAUAUCUUUACGUAGAAGGCGGACCGGCGACUUGAGGAUCACCCAAGUGUCCUCUUUUGCGG [Mutated MS2 EX1.26] (Eterna round: R96, puzzle: Exclusion NG 1) | 184 nM | 46.7 nM | – | – | – | 51.1 nM
ACUUAUAGAGGAUAUACAGUUAAUUACAUGAGGAUCACCCAUGUUCUUCAAUGUAUAUAAGUAGAAGGCAAAGGAA [Mat - Exclusion 5 - Eli Mod - D3] (Eterna round: R97, puzzle: Exclusion 5) | 23.2 nM | 16.2 nM | – | – | – | –
UAUUCGCAAGCGAGAUCCCACAUGAGGAUCACCCAUGUGCUCGUCUUAUAAGGUACUGUGACGAUAGUCACGGUACC [Mat - Sensor, turn-off var - Eli Mod - D81] (Eterna round: R97, puzzle: Sensor, turn-off variant 1) | 16.7 nM | 16.3 nM | – | – | – | –
GAGUCACAUGAGGAUCACCCAUGUGAGGAUAUCAUGCUUCGUAGUAAACUACGAAGUGUGAGAAGGCACAAUGG [Omei Ex1 C8] (Eterna round: R97, puzzle: Exclusion 1) | 126 nM | 68.6 nM | – | – | – | –
UACAUGAGGAUCACCCAUGUUUUGUCGUGUAUGGUAUUUAUCUAGGAUAUCAAUGUAUUUAUUCAUGAGAAGGAGAAUAUUAAU [JMF's solution 48] (Eterna round: R96, puzzle: Exclusion NG 3) | 32.4 nM | 33.7 nM | – | – | – | 28.3 nM
UCGCUGCGAGGAUAUACAUGAGGAUCACCCAUGUACGGGUCCGGGUCUUAGUUGAUUGGUAGAAGGCGCAGUGA [JL Laongeedie mod 11] (puzzle: Exclusion 3) | – | – | – | 84.7 nM | – | –
UCUCAGUCAGGAUAUCGUUAAUUUAAUUGUUUGUAUUAGUUCGAGAAGGGACAUGAGGAUCACCCAUGUACUCU [Ex4 #18] (Eterna round: R97, puzzle: Exclusion 4) | 29.8 nM | 18.8 nM | – | – | – | –
GGAUCGAAAGUGAGGAUAUACCUAUGGAUACAUAGGUAGAAGGCACAUGAGGAUCACCCAUGUUCCUACGGUCC [Eli bmx4 4.10] (Eterna round: R97, puzzle: Brourd's mod of Exclusion 4) | 114 nM | 18.4 nM | – | – | – | –
UUUAUAAUAAGAUCAAUUAAUUAACAUGAGGAUCACCCAUGUGAGGAUAUCAGCUCGUUUAGAGCUGAGAAGGCACAAUAUAAG [ExNG3/17-B2] (Eterna round: R96, puzzle: Exclusion NG 3) | 62.2 nM | 42.3 nM | – | – | – | 42.1 nM
ACAUGACAGCUAGGAUAUAAAUGACAUGAGGAUCACCCAUGUUGUCCCAUGUUGACGAUCACCGAUUAGAAGGAGCCACCCAUG [Ex NG2 #1] (Eterna round: R96, puzzle: Exclusion NG 2) | 106 nM | 89 nM | – | – | – | 110 nM
CGCGUUUAUGUAGGAUAUGCCUGGCGUGCCUUAGCAGAAGGACAUGAGGAUCACCCAUGUAACAUGAGGCUCACCCAUGUCGCA (Eterna round: R96, puzzle: Exclusion NG 1) | 201 nM | 167 nM | – | – | – | 120 nM
UGAGUGCUGCGAGGAUAUACAUGAGGAUCACCCAUGUGGUCCUGUGAGGCUUUGCCUCACAGGAUGUAGAAGGCGCAGUACUCU [JL ENG2 1.18] (Eterna round: R96, puzzle: Exclusion NG 2) | 82.9 nM | 17.4 nM | – | – | – | 13.8 nM
UCCACACAUGAGGAUCACCCAUGUCAGGAUAUCUUUAGGGACUAUGGUUAUUCCUAAUAGAGAAGGGACAUAUU [EX1 B.27] (Eterna round: R97, puzzle: Exclusion 1) | 152 nM | 37.1 nM | – | – | – | –

Sequence | apparent KD of MS2 coat protein (input ligand: FMN 200 uM) | apparent KD of MS2 coat protein (input ligand: none) | apparent KD of MS2 coat protein [1] | apparent KD of MS2 coat protein [2] | apparent KD of MS2 coat protein [3] | apparent KD of MS2 coat protein [4]
AGGACGGCAGGAUAUACAUGAGGAUCACCCAUGUCUGGUGUCGAGCUAAUUGUGCAUAGUAGAAGGGUCGCUCC [Eternabot (L1) Solution 39] (Eterna round: R97, puzzle: Exclusion 3) | 204 nM | 62.1 nM | – | – | – | –
AGAUGUAGAUACCGGUCCUACAUGAGGAUCACCCAUGUAGCUAGACGUGCGGGCGGCGCUCGUCGGUCUACCAGUAG [salish99_TOv1_r3_099] (puzzle: Sensor v3, turn-off variant 1) | – | – | 30.2 nM | 30.7 nM | 37.7 nM | –
CGUGCGUAUGUGAGGAUAUGCUGGUCCUUGGAUCGGCAGAAGGCACAUGAGGAUCACCCAUGUGGUGUCGUGCA [salish99_Bmod_ex4_090] (puzzle: Brourd's mod of Exclusion 4) | – | – | – | 190 nM | – | –
GAAAAGGUAGGAUAUACGAAAAAAAAAGGUAGAAAAAAAACACAUGAGGAUCACCCAUGUAGAAGGACCAAAAG [salish99_ex2_r3_070] (puzzle: Exclusion 2) | – | – | 37.4 nM | 51.5 nM | 30.6 nM | –
AGGGAGCGAGGAUAUACAGAGUAGGAAACCACUCCCUCAGUACAUGAGGAUCACCCAUGUAGAAGGCGCCCGAA [EX2 A.8] (Eterna round: R97, puzzle: Exclusion 2) | 39.2 nM | 31.5 nM | – | – | – | –
UUGGAGAGAGGAUAUCCCUAGUUUAACAUGAGGAUCACCCAUGUGCGCGUCAAGUCGAAAGGAGAAGGUUCGGCGA [Eternabot (L1) Solution 5] (Eterna round: R97, puzzle: Exclusion 5) | 32.7 nM | 26.8 nM | – | – | – | –
GUCUACAUGACAUGAGGAUCACCCAUGUGUUAUAUUUUUACUAAGGAUAUAUUUUUAAUGUUGAGAUAGAAGGUAGUUUCGGUC [JR_ExcNG3_Sub093] (Eterna round: R96, puzzle: Exclusion NG 3) | – | – | – | – | – | 32.8 nM
CUAUUACGAGGAUAUGAUUUAAAUAACAUGAGGAUCACCCAUGUUUUUACGUUAUUUUAUUUAGAAGGCGUAUUGU [JR_E5_Sub028] (puzzle: Exclusion 5) | – | – | 34.1 nM | 53.7 nM | 61.5 nM | –
GUUUGCGCAGGAUAUACAUGAGGAUCACCCAUGUGAGAGAAAGAAGUGAGGAAGAAAAGUAGAAGGGCGUGACG [Mat - Exclusion 3 - Mod of Salish D72] (puzzle: Exclusion 3) | – | – | 301 nM | 58.4 nM | 39 nM | –
CCGGAAAUGGAGGAUAUAGGAGUCGAUAGACACCUAGAAGGUCAUACAUGAGGAUCACCCAUGUGUCCUACCGG [Fiskers Ex 6 - 79] (puzzle: Exclusion 6) | – | – | – | 12.9 nM | – | –
CGACGUGGAGUGAGGAUAUCGUGUUCGAAAGAACGUGAGAAGGCACAUGAGGAUCACCCAUGUGAUUCACGUCG [Omei Ex4B A5] (Eterna round: R97, puzzle: Brourd's mod of Exclusion 4) | 27.7 nM | 20.6 nM | – | – | – | –
ACAUGAGGAUCACCCAUGUCCGGCUGGUCUGUCUCGGCUGUCGAGGAUAUAGCUCGGUAUCCGCGCUAGAAGGCGGGAGCCGGC [Aenatbe mod 90] (Eterna round: R96, puzzle: Exclusion NG 3) | 98 nM | 72.7 nM | – | – | – | 43.5 nM
UCUUCACAUGAGGAUCACCCAUGUGAGGAUAUGGUUUCGCUGGCCGUAGCCAGUGGAACCAGAAGGCGCGUGAU [Mat - Exclusion 1 - JL Mod - D23] (Eterna round: R97, puzzle: Exclusion 1) | 89.6 nM | 73.5 nM | – | – | – | –
AUGUUGUCAGGAUAUCGUUAAUUUAGUUGUUUGUAUUAGUUCGAGAAGGGACAUGAGGAUCACCCAUGUUUGAA [Ex4 #35] (Eterna round: R97, puzzle: Exclusion 4) | 41.2 nM | 34.8 nM | – | – | – | –
UUGGAGAUAGGAUAUACGAGGAGAGUUGAGGGAAGGUGAUGACAUGAGGAUCACCCAUGUAGAAGGAUCAGGAG [JR_Exclu2_Sub069] (puzzle: Exclusion 2) | – | – | – | 118 nM | – | –
